Km, kcat and kcat/Km data for four proteins are collected here from paper PMC3744803, “A continuous fluorescence assay for the characterization of Nudix hydrolases” (Analytical Biochemistry, 2013).

As a reminder, the Km is the concentration of substrate that gives half-maximal velocity. For orientation: kcat means the number of substrate molecules converted per active site and unit of time at saturation. The kcat/Km is the second-order rate constant that governs catalysis at low substrate concentration.

Substrate in data set [1]: Nc1nc2c([nH]c(=O)n2[C@H]2C[C@H](O)[C@@H](COP(=O)(O)OP(=O)(O)OP(=O)(O)O)O2)c(=O)[nH]1
In words: continuous fluorescence Pi-sensor (PBP-MDCC) assay. Format: biochemical, Methanosarcina mazei. The settings on record: pH 7.6, 37 °C, 10 mM Tris-HCl, 1 mM MgCl2, PPase coupling. An excerpt: (§1) continuous fluorescence Pi-sensor (PBP-MDCC) assay on MM_0920

Substrate in data set [2]: Nc1ncnc2c1[nH]c(=O)n2[C@H]1C[C@H](O)[C@@H](COP(=O)(O)OP(=O)(O)OP(=O)(O)O)O1
Kind of data set: continuous fluorescence Pi-sensor (PBP-MDCC) assay. Type of data set: biochemical, Methanosarcina mazei. The settings on record: pH 7.6, 37 °C, 10 mM Tris-HCl, 1 mM MgCl2, PPase coupling.
Source text: as §1

Substrate in data set [3]: Nc1nc2c([nH]c(=O)n2[C@H]2C[C@H](O)[C@@H](COP(=O)(O)OP(=O)(O)OP(=O)(O)O)O2)c(=O)[nH]1
Kind of data set: continuous fluorescence Pi-sensor (PBP-MDCC) assay. Format: biochemical, Deinococcus radiodurans. The note with it: pH 7.6, 37 °C, 10 mM Tris-HCl, 1 mM MgCl2, no coupling phosphatase. The source says: (§2) continuous fluorescence Pi-sensor (PBP-MDCC) assay on DR_1025

Substrate in data set [4]: Nc1nc2c([nH]c(=O)n2[C@@H]2O[C@H](CO[P@@](=O)(O)O[P@@](=O)(O)OP(=O)(O)O)[C@@H](O)[C@H]2O)c(=O)[nH]1
Kind of data set: continuous fluorescence Pi-sensor (PBP-MDCC) assay. Format: biochemical, Deinococcus radiodurans. The settings on record: pH 7.6, 37 °C, 10 mM Tris-HCl, 1 mM MgCl2, no coupling phosphatase.
Source text: as §2

Substrate in data set [5]: Nc1nc2c(ncn2[C@@H]2O[C@H](COP(=O)(O)OP(=O)(O)O[C@H]3O[C@H](CO)[C@@H](O)[C@H](O)[C@@H]3O)[C@@H](O)[C@H]2O)c(=O)[nH]1
Kind of data set: discontinuous Fiske-SubbaRow (malachite green phosphate) assay. The settings on record: pH 8.5, 37 °C, 1 mM MgCl2, APase coupling. Format: biochemical, Escherichia coli. An excerpt:
discontinuous Fiske-SubbaRow (malachite green phosphate) assay on NudD

Substrate in data set [6]: Nc1nc2c([nH]c(=O)n2[C@H]2C[C@H](O)[C@@H](COP(=O)(O)OP(=O)(O)OP(=O)(O)O)O2)c(=O)[nH]1
Kind of data set: continuous fluorescence Pi-sensor (PBP-MDCC) assay. Format: biochemical, Escherichia coli. The note with it: pH 7.6, 37 °C, 10 mM Tris-HCl, 1 mM MgCl2, PPase coupling, alpha-beta cleavage. An excerpt:
(§3) continuous fluorescence Pi-sensor (PBP-MDCC) assay on MutT

Substrate in data set [7]: Nc1nc2c([nH]c(=O)n2[C@@H]2O[C@H](CO[P@@](=O)(O)O[P@@](=O)(O)OP(=O)(O)O)[C@@H](O)[C@H]2O)c(=O)[nH]1
In words: continuous fluorescence Pi-sensor (PBP-MDCC) assay. Type of data set: biochemical, Escherichia coli. The note with it: pH 7.6, 37 °C, 10 mM Tris-HCl, 1 mM MgCl2, PPase coupling.
Source text: as §3

B1: MM_0920 (Methanosarcina mazei Go1) (protein)
chain: MNLEKPYIISVYALIRNEKGEFLLLRRSENSRTNAGKWDLPGGKVNPDESLKEGVAREVWEETGITMVPGDIAGQVNFELTEKKVIAIVFDGGYVVADVKLSYEHIEYSWVSLEKILGMETLPAYFRDFFERFDRENKKPSKLFI
Turning to B1, in data set [1], the Km is 13 ± 3 µM and the kcat entry is “(1.9 ± 0.2) × 10^−3 s^−1”. Also, in data set [2], the Km amounted to 12 ± 3 µM, the kcat was 0.00096 ± 8e-05 s⁻¹ and the kcat/Km was 78 ± 12 M⁻¹ s⁻¹.

B2: DR_1025 (Deinococcus radiodurans R1 = ATCC 13939 = DSM 20539) (protein)
chain: MEHDERTHVPVELRAAGVVLLNERGDILLVQEKGIPGHPEKAGLWHIPSGAVEDGENPQDAAVREACEETGLRVRPVKFLGAYLGRFPDGVLILRHVWLAEPEPGQTLAPAFTDEIAEASFVSREDFAQLYAAGQIRMYQTKLFYADALREKGFPALPV
For the protein B2, in data set [3], the Km came to 26 ± 1 µM, the kcat worked out at 0.18 ± 0.01 s⁻¹ and the kcat/Km came out at 4400 ± 100 M⁻¹ s⁻¹. Also, in data set [4], the Km was found to be 22 ± 5 µM and the kcat worked out at 0.13 ± 0.01 s⁻¹.

B3: NudD (Escherichia coli K-12) (protein)
chain: MFLRQEDFATVVRSTPLVSLDFIVENSRGEFLLGKRTNRPAQGYWFVPGGRVQKDETLEAAFERLTMAELGLRLPITAGQFYGVWQHFYDDNFSGTDFTTHYVVLGFRFRVSEEELLLPDEQHDDYRWLTSDALLASDNVHANSRAYFLAEKRTGVPGL
Take B3: the Km in data set [5] is 220 ± 60 µM.

B4: MutT (Escherichia coli K-12) (protein)
chain: MKKLQIAVGIIRNENNEIFITRRAADAHMANKLEFPGGKIEMGETPEQAVVRELQEEVGITPQHFSLFEKLEYEFPDRHITLWFWLVERWEGEPWGKEGQPGEWMSLVGLNADDFPPANEPVIAKLKRL
Regarding B4, the Km in data set [6] is 0.28 ± 0.03 µM. In data set [7], the Km worked out at 0.9 ± 0.2 µM and the kcat was found to be 11.2 ± 0.9 s⁻¹.
